Measurements as given in the supplement of paper PMC9170038.

Tested on: MS2 coat protein
Test: apparent KD of MS2 coat protein; designed switch direction (-1 OFF switch, 1 ON switch): -1; higher = weaker reporter binding
In short: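 Three titration conditions were used: no input, 200 uM small-molecule ligand, and an oligonucleotide input. In each, SNAP-549-labelled MS2 coat protein was raised from 0.7 or 1.5 nM, doubling, to 3 µM over designed RNA switches transcribed on Illumina chips by stalled E. coli RNA polymerase. Curve fits of normalised cluster fluorescence gave values whose per-design median over clusters is the apparent KD.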

[1] = Eterna round: R95, input ligand: FMN 200 uM
[2] = Eterna round: R95, input ligand: microRNA oligo, concentration not stated
[3] = Eterna round: R95, input ligand: none
[4] = input ligand: microRNA oligo, concentration not stated

| Sequence | apparent KD of MS2 coat protein (input ligand: FMN 200 uM) | apparent KD of MS2 coat protein (input ligand: none) | apparent KD of MS2 coat protein [2] | further results |
| --- | --- | --- | --- | --- |
| AACUUCUGAGGAUAUACAUAGAUUUACAUGAGGAUCACCCAUGUUCCUCUAUGUAUAAAUGUAGAAGGCAGAAGAA [JL-ex5-4.37 Malcolm mod] (Eterna round: R97, puzzle: Exclusion 5) | 88.6 nM | 18.3 nM |  |  |
| CUAAUACAUCAGGAUAUCUUAGCCUAUAGCAUAAGAGAAGGGAUGACAUGAGGAUCACCCAUGUCAAAGGGUGA [eternacac ex6r4 sub20] (Eterna round: R97, puzzle: Exclusion 6) | 304 nM | 929 nM |  |  |
| GAAGUUAGAGGAUAUACAUGAGGAUCACCCAUGUGUGAAGUAAACUUUGUAUGUUUAUGUAGAAGGCUAACUUC [-21.7, -19.9 kcal, 32% A] (Eterna round: R97, puzzle: Exclusion 3) | 94 nM | 19.1 nM |  |  |
| AAUAACAAGUAAGAUCCUAACAUGAGGAUCACCCAUGUGCUCGUCUUGUAAAGUACUAUCACGAAAGUGAUAGUACA [Sensor 3, v1 - 51] (puzzle: Sensor v3, turn-off variant 1) |  |  | 295 nM | apparent KD of MS2 coat protein [1]: 48.3 nM; apparent KD of MS2 coat protein [3]: 54.7 nM |
| AAUAACAGAGGAUAUACUGUUUUAUGUGUUUAUUAUUUUAAACAUGAGGAUCACCCAUGUAGAAGGCUGAAUAA [JMF 13] (puzzle: Exclusion 2) |  |  | 37 nM |  |
| AGCCAUCGUGUGAGGAUAUCGAUAAGUUCGAGUUUCGAGAAGGCACAUGAGGAUCACCCAUGUCGUGAAAGAAA [BmEX4 A.28] (Eterna round: R97, puzzle: Brourd's mod of Exclusion 4) | 75.8 nM | 244 nM |  |  |
| CAGCUGAAAGUCAGGAUAUCUAGAGCGAUAGCUCUAGAGAAGGGACAUGAGGAUCACCCAUGUGAUCACAGCUG [BmEx4/4-A4] (Eterna round: R97, puzzle: Brourd's mod of Exclusion 4) | 408 nM | 1980 nM |  |  |
| CCCAGUUACUGAGGAUAUCCUACAUGAGGAUCACCCAUGUAAUAAAUGAGGAUUUCGGGUGUCUAGGAGAAGGCAGGGAUAGGC [Ostracism 23 - Jieux - Exclusion NG 2] (Eterna round: R96, puzzle: Exclusion NG 2) | 84.9 nM | 50.3 nM |  | apparent KD of MS2 coat protein [4]: 28.8 nM |
| CAGUACUGAGGAUAUACAUGAGGAUCACCCAUGUGUGUGAGUUUUGUAUGAAUGUUAUGUAGAAGGCGGUGCUG [JR_Ex3_Sub034] (Eterna round: R97, puzzle: Exclusion 3) | 285 nM | 504 nM |  |  |
| ACAAGCUCUGUUGGGUGGUACAUGAGGAUCACCCAUGUUUUGCUCGUCUUGUGGGCCCGGGCCCGCGGCCCGGGCCC [-41.7, -69.7, A 12%] (Eterna round: R97, puzzle: Sensor, turn-off variant 1) | 513 nM | 807 nM |  |  |
| CAUAGUUACACAGGAUAUAGUACAUGAGGAUCACCCAUGUAAUAAAUGAGAAUUUCGAAUGUAUACUAGAAGGGUGAAAUCUAC [Ostracism 54 - Jieux - Exclusion NG 2] (Eterna round: R96, puzzle: Exclusion NG 2) | 206 nM | 171 nM |  | apparent KD of MS2 coat protein [4]: 144 nM |
| AGGUAACAUGAGGAUCACCCAUGUCAGGAUAUCAUGAAGAGGAGAUUAGAGGAGAGGUUGAGAAGGGACUAUAU [Excluse me! 14 - Jieux - Exclusion 1] (puzzle: Exclusion 1) |  |  | 57.1 nM |  |
| AAGUCCAGAGGAUAUCAGACGCGGCACAUGAGGAUCACCCAUGUAUUCCCGUCUGCCGACUGAGAAGGUUGGAAAG [Vesoarusqu] (puzzle: Exclusion 5) |  |  | 11.1 nM |  |
| CAUACUCAAGUCAGGAUAUACAGUCGAAUACGGGUGUAGAAGGGACAUGAGGAUCACCCAUGUAGAGAGUAAAG [EX-4 Malc #22] (puzzle: Brourd's mod of Exclusion 4) |  |  | 33 nM | apparent KD of MS2 coat protein [1]: 122 nM; apparent KD of MS2 coat protein [3]: 36.1 nM |
| UUUAAUUUUUUUUUUUUACAAGCUUUUUGCUCGUCUUAUACAUGAGGAUCACCCAUGUAAGUGGAGGAUAAAUUAUC [JMF 33] (puzzle: Sensor v3, turn-off variant 2) |  |  | 23.8 nM | apparent KD of MS2 coat protein [1]: 24.7 nM; apparent KD of MS2 coat protein [3]: 24.1 nM |
| UCGUUUUUUGAGGAUAUGCGACGUUCCUUCGUCGUAGAAGGCGAUACAUGAGGAUCACCCAUGUUUAUGGGCAU [LRO-Ex6-16] (puzzle: Exclusion 6) |  |  | 109 nM |  |
| UAUAAGAUAGGAUAUACAGGCCCGUCUUCAUAUUGAUCCCGACAUGAGGAUCACCCAUGUAGAAGGAUCGUAUA [Mod 23 - Jieux - Exclusion 2] (Eterna round: R97, puzzle: Exclusion 2) | 23.3 nM | 21.9 nM |  |  |
| UAUCAGCAAGUGAGGAUAUAGAGAACGGUUGUUGGCUAGAAGGCACUUGAGGAUCACCCAAGUCGCAAAGUGGC [Mamausonbe] (Eterna round: R97, puzzle: Brourd's mod of Exclusion 4) | 134 nM | 29.3 nM |  |  |

| Sequence | apparent KD of MS2 coat protein (input ligand: FMN 200 uM) | apparent KD of MS2 coat protein (input ligand: none) | apparent KD of MS2 coat protein [2] | further results |
| --- | --- | --- | --- | --- |
| UUGAUGUGAGGAUAUGUGAUCUGCCUUCUAUAUAGAUGAUUACAGAAGGCACAUGAGGAUCACCCAUGUAGAUC [Ex4 - 3 - 24] (puzzle: Exclusion 4) |  |  | 49.2 nM |  |
| CAGUACUGAGGAUAUACAUGAGGAUCACCCAUGUGUUCCAGCUAGGAAACUAGCAAGAGUAGAAGGCAGUACUG [salish99_ex3_r3_066] (puzzle: Exclusion 3) |  |  | 24.1 nM |  |
| AAAAAAUACAUGAGGAUCACCCAUGUAGAGUGGGAAGAGAGAUAGGAUAUGAUGUGAGAAUCAUAUCAGAAGGAUCGAGACUCA [AK ExNG3-2.2] (Eterna round: R96, puzzle: Exclusion NG 3) | 143 nM | 139 nM |  | apparent KD of MS2 coat protein [4]: 110 nM |
| AAUGAUUGACGAGGAUAUUGUGUUAGAUCACGACGAGAAGGCGUUUGUCACAUGAGGAUCACCCAUGUGAGCCUUGUGGAUAGA [Ex NG1 #76] (Eterna round: R96, puzzle: Exclusion NG 1) | 56.6 nM | 21.5 nM |  | apparent KD of MS2 coat protein [4]: 15.6 nM |
| ACGCGUGAAGGAUAUACGCGGGCCCAAGCGGAUCACACCGCACAUGAGGAUCACCCAUGUAGAAGGUCGCAAAA [r4x2dt3] (Eterna round: R97, puzzle: Exclusion 2) | 33.4 nM | 13.9 nM |  |  |
| ACAAGCUAAAUCAUAUCUUACAUGAGGAUCACCCAUGUUUUUGCAAUUAUGUUUGGGCUCUUUUGUGCUCGUCUUAU [JR_STOV1_Sub050] (Eterna round: R97, puzzle: Sensor, turn-off variant 1) | 16.1 nM | 17.6 nM |  |  |
| UUUUUUGUUGUGAGGAUAUCGUAGUUAUUUUGUUACGAGAAGGCACAUGAGGAUCACCCAUGUUUUUUGAUGUU [JR_BMOE4_Sub064] (puzzle: Brourd's mod of Exclusion 4) |  |  | 25.4 nM |  |
| CCUCCACAUGAGGAUCACCCAUGUCAGGAUAUCGUGUGCGCGUUUUCGGUCUUUCGCGCGAGAAGGGACGACUG (Eterna round: R96, puzzle: Exclusion 1) | 32 nM | 30.2 nM |  | apparent KD of MS2 coat protein [4]: 22.5 nM |
| UUCCUCGUUGUGAGGAUAUCGUAUUCUUUUUGUUACGAGAAGGCACAUGAGGAUCACCCAUGUUUCUUGAUGUU [JR_BMOE4_Sub069] (puzzle: Brourd's mod of Exclusion 4) |  |  | 19.6 nM |  |
| UGUGCGUAUGUGAGGAUAUGCUGGUCCUUGGAUCGGCAGAAGGCACAUGAGGAUCACCCAUGUGGUGUCGUUCU [salish99_Bmod_ex4_096] (puzzle: Brourd's mod of Exclusion 4) |  |  | 188 nM |  |
| AAGUACUACAAGCUUAGGGACAUGAGGAUCACCCAUGUUCGUCUUAUUGAUCUAGGUACGCUGACGUACCUAGAUCA [Mat - Sensor v3 - turn-off var 1 - JL Mod - D10] (puzzle: Sensor v3, turn-off variant 1) |  |  | 44.5 nM | apparent KD of MS2 coat protein [1]: 16.2 nM; apparent KD of MS2 coat protein [3]: 15.5 nM |
| AUUAUGUUAGGAUAUUAUUUGCCCUACUAAGGCACGAGAAGUAAGAAGGGACAUGAGGAUCACCCAUGUUGGAG [Eternabot (L2) Solution 71] (Eterna round: R97, puzzle: Exclusion 4) | 30.3 nM | 42.7 nM |  |  |
| ACCUCACAUGAGGAUCACCCAUGUUAGGAUAUCUCGGCGCCCUGUAGGCAGUAGCGCCAGAGAAGGAACGUGCA [Gearorso] (puzzle: Exclusion 1) |  |  | 19.8 nM |  |
| UAUUAAGCAAGCAGAUCCCACAUGAGGAUCACCCAUGUGCUCGUCUUAUAAGGUACUGUGACGAAAGUCACGGUACC [Sensor 3, v1 - 91 v12] (Eterna round: R97, puzzle: Sensor, turn-off variant 1) | 126 nM | 156 nM |  |  |
| GAGUGAUAAGGAUAUACAUGAGGAUCACCCAUGUGCUUCAGCUAGGAGACUAGCAUUGGUAGAAGGUAUUACUC [Mod of lroppy 11 - Jieux - Exclusion 3] (Eterna round: R97, puzzle: Exclusion 3) | 54.3 nM | 18.7 nM |  |  |
| GACAGCGGAGGAUAUGCCGUAGAUUACAUGAGGAUCACCCAUGUGGGCUGUAAGUAAUAGGCAGAAGGCUGCCGUU [Eternabot (Original) Solution 33] (Eterna round: R97, puzzle: Exclusion 5) | 144 nM | 109 nM |  |  |
| GGAGCGGCAGGAUAUACAUGAGGAUCACCCAUGUAAAGAAGGGUAAGAAACCACCUCGGUAGAAGGGCCAGGAG [AK-MS2ROC-r4-exclusion3-10] (Eterna round: R97, puzzle: Exclusion 3) | 191 nM | 94.5 nM |  |  |
